# According to IntAct's records for PubMed 17540172:
# B1: "Lethal(3)malignant brain tumor-like protein 1" (Homo sapiens), Q9Y468 (parent)
# chain: MHLVAGDSPGSGPHLPATAFIIPASSATLGLPSSALDVSCFPREPIHVGAPEQVAGCEPVSATVLPQLSAGPASSSTSTVRLLEWTEAAAPPPGGGLRFRISEYKPLNMAGVEQPPSPELRQEGVTEYEDGGAPAGDGEAGPQQAEDHPQNPPEDPNQDPPEDDSTCQCQACGPHQAAGPDLGSSNDGCPQLFQERSVIVENSSGSTSASELLKPMKKRKRREYQSPSEEESEPEAMEKQEEGKDPEGQPTASTPESEEWSSSQPATGEKKECWSWESYLEEQKAITAPVSLFQDSQAVTHNKNGFKLGMKLEGIDPQHPSMYFILTVAEVCGYRLRLHFDGYSECHDFWVNANSPDIHPAGWFEKTGHKLQPPKGYKEEEFSWSQYLRSTRAQAAPKHLFVSQSHSPPPLGFQVGMKLEAVDRMNPSLVCVASVTDVVDSRFLVHFDNWDDTYDYWCDPSSPYIHPVGWCQKQGKPLTPPQDYPDPDNFCWEKYLEETGASAVPTWAFKVRPPHSFLVNMKLEAVDRRNPALIRVASVEDVEDHRIKIHFDGWSHGYDFWIDADHPDIHPAGWCSKTGHPLQPPLGPREPSSASPGGCPPLSYRSLPHTRTSKYSFHHRKCPTPGCDGSGHVTGKFTAHHCLSGCPLAERNQSRLKAELSDSEASARKKNLSGFSPRKKPRHHGRIGRPPKYRKIPQEDFQTLTPDVVHQSLFMSALSAHPDRSLSVCWEQHCKLLPGVAGISASTVAKWTIDEVFGFVQTLTGCEDQARLFKDEARIVRVTHVSGKTLVWTVAQLGDLVCSDHLQEGKGILETGVHSLLCSLPTHLLAKLSFASDSQY
# Variants of: B1
# Conditions: with h14_human H1-4, P10412
# Chain of h14_human H1-4, P10412 (P10412 whole entry): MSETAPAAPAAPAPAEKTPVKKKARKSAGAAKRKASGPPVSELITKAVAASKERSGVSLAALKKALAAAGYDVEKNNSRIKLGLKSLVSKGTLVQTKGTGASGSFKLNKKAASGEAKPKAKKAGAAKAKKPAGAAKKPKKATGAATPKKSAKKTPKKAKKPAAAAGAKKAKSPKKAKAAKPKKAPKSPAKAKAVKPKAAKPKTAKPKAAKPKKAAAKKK
row,Variant,effect of a mutation on the interaction
1,F447A,decreasing interaction

# Variants of: B1
# Conditions: with h14_human H1-4, P10412
# Remark: another data set of the same source
row,Variant,effect of a mutation on the interaction
1,D423N,decreasing interaction

# Variants of: B1
# Conditions: with h4_human H4C16, P62805
row,Variant,effect of a mutation on the interaction
1,D423N,decreasing interaction
